Biological target: sh3k1_human SH3KBP1 (UniProt Q96B97)

- effect of a mutation on the interaction: decreasing interaction
Substance: Polyubiquitin-C (Homo sapiens) (from UniProt P0CG48) K6E

Source: IntAct's records for PubMed 18680311
